Assay results reported in patent publication US20240293570A1 (priority 2021, published 2024).
Like-named read-outs stand apart in the source and are kept apart here.

Experiments:
[1] = test system: breast cancer JIMT-1; experiment: In vivo anti-tumor effect, breast cancer JIMT-1 tumor model; parameters: species or system mouse; details: JIMT-1 subcutaneous model, FIG. 10
Procedure: (§1) Tumor cells (ovarian cancer SKOV-3, gastric cancer NCI-N87, and breast cancer JIMT-1) were cultured in a medium and maintained in a 37° C. saturated humidity incubator containing 5% CO2, respectively.
(§2) Tumor cells in a logarithmic growth phase were collected and re-suspended in a basic medium, and the concentration of cells was adjusted to 4×10^7/mL. Under sterile conditions, 0.1 mL of cell suspension was inoculated subcutaneously into the right armpit of a mouse at a concentration of 4×10^6 Cells/0.1 mL/mouse.
(§3) When the tumor volume reached around 200 mm^3, animals were randomly grouped according to the tumor volume, where the difference in tumor volume between the groups was less than 10% of the mean. The grouping day was recorded as Day 0, and administration started according to the body weight of the animals. In the administration period, if the body weight of individual animals decreased by more than 15% compared to that on Day 0 (BWL≥15%), the administration was stopped until the body weight of the animals recovered (BWL<15%), and then the administration recovered.
(§4) During the experiment, the body weight of the animals and the tumor volume were measured 2 times a week, and clinical symptoms of the animals were observed and recorded every day.

[2] = Naked antibody content of antibody-drug conjugates by hydrophobic interaction chromatography (HIC); assay type: physicochemical; details: ADC with Her2 antibody
[3] = assay type: physicochemical; details: ADC with Her2 antibody, RP-HPLC-MS
Outline: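 ADC at 1 mg/ml reduced with 50 mmol/L DTT in Tris pH 8.0 for 30 min at 37 °C, then light and heavy chains separated by RP-HPLC on a PLRP-S column at 70 °C. Deconvoluted masses assigned drug load per peak; weighted average DAR calculated from UV peak area percentages.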

[4] = test system: gastric cancer NCI-N87; experiment: In vivo anti-tumor effect, gastric cancer NCI-N87 tumor model; parameters: species or system mouse; details: NCI-N87 subcutaneous model, FIG. 10, FIG. 11
Procedure: as §1, §2, §3, §4

[5] = Polymer (high molecular component) content of antibody-drug conjugates by SE-HPLC; assay type: physicochemical; details: ADC with Her2 antibody
Outline: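 SE-HPLC on 7.8×300 mm SEC column with 50 mM phosphate, 300 mM NaCl (pH 6.8) mobile phase at 0.5 mL/min; high-molecular-weight content determined by area normalization.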

[6] = Stability (placement) test of ADCs at 40° C. in dark for 14 days, DAR and polymer content; assay type: physicochemical
Outline: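 ADCs stored at 40° C in dark, sampled on days 0, 7 and 14. Polymer content by SE-HPLC (50 mM phosphate, 300 mM NaCl, pH 6.8), area normalization. DAR by RP-HPLC-MS after reduction (1 mg/ml in 50 mmol/L Tris pH 8.0, 50 mmol/L DTT, 37° C, 30 min): deconvoluted chain masses assign drug load, weighted average from UV peak areas.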

Row | Structure (SMILES) | in vivo anti-tumor effect on breast cancer [1] | Naked antibody content (%) [2] [%] | DAR [3] | in vivo anti-tumor effect on gastric cancer [4] | Polymer content (%) [5] [%] | DAR ([6]; Day 0, 40° C. in dark) | Polymer content (%) ([6]; Day 0, 40° C. in dark) | DAR ([6]; Day 7, 40° C. in dark) | Polymer content (%) ([6]; Day 7, 40° C. in dark) | DAR ([6]; Day 14, 40° C. in dark) | Polymer content (%) ([6]; Day 14, 40° C. in dark)
1 | C=C1C[C@@H]2CC[C@@]34C[C@H]5OC6C(O[C@H]7CC[C@H](CC(=O)C[C@@H]8[C@@H](OC)[C@@H](C[C@H](O)CNC(=O)CNC(=O)[C@H](Cc9ccccc9)NC(=O)CNC(=O)CNC(=O)CCCCCN9C(=O)C=CC9=O)O[C@H]8C[C@H]8O[C@@H](CC[C@@H]1O2)C[C@@H](C)C8=C)O[C@@H]7[C@@H]6O3)[C@H]5O4 [Comparative Example 4, reference compound] | poor anti-tumor effects | 8.01 | 3.01 | poor anti-tumor effects | 10.73 | – | – | – | – | – | –
2 | C=C1C[C@@H]2CC[C@@]34C[C@H]5OC6C(O[C@H]7CC[C@H](CC(=O)C[C@@H]8[C@@H](OC)[C@@H](C[C@H](O)CNC(=O)CNC(=O)[C@H](Cc9ccccc9)NC(=O)CNC(=O)CN9CCOCCOCCN(C(=O)CCCCCN%10C(=O)C=CC%10=O)CCOCCOCC9)O[C@H]8C[C@H]8O[C@@H](CC[C@@H]1O2)C[C@@H](C)C8=C)O[C@@H]7[C@@H]6O3)[C@H]5O4 [Example 40] | – | 4.27 | 3.78 | significantly better | 1.29 | 3.78 | 1.29 | 3.75 | 1.31 | 3.74 | 1.41
